Reference: the supplement of paper PMC12764529
± gives the half width of the 95% confidence interval.

Test: folding stability dG unfold (combined trypsin and chymotrypsin); higher = more stable
Description: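 Folding stability of de novo designed mini-proteins (<80 aa, no Cys; designed by TrROS, TrMRF, ProteinMPNN and the joint model) was measured by cDNA display proteolysis with trypsin and chymotrypsin. Each protease was used at 11 concentrations in a threefold dilution series plus a no-protease condition. K50 was inferred by Bayesian fitting of sequencing counts, and dG unfold was derived against a sequence-predicted unfolded-state K50 (Tsuboyama et al. method). Sequences shown include variable-length N-terminal GS-type padding (SAGGSAGG...) inside a display construct carrying a PA tag. Rows were kept only if the AF2 dimer inter-PAE was >15, to exclude likely homo-oligomers.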
For “SAGGSMTVSTAPDGTLKVYDPATGKLNPLPVPPVPLVVSRSVQPDKGVVITTTTTPSGEVTVSTTALSAGGS [r16_453_JUSTAS]”, the “folding stability dG unfold” value was -0.159 ± 0.075 kcal/mol.
In the case of “SAGGSAMKAKVVDTSLKESKTKDDSIIVTVTVKYPDGSVTPIVYPVSSSGGISEEEVEKAIKELLESAGGSA [r15_233_JUSTAS]”, the “folding stability dG unfold” value is reported as -0.661 ± 0.14 kcal/mol.
With “SAGGSMPPVVEPATLTLGNGPATQLQRYPGVELVVYRRPPENTILFLSSSGQVLEERKVSPETPVSELSAGG [r13_507_JUSTAS]” the “folding stability dG unfold” value was less than -1 kcal/mol.
For “SAGGSAGGSAGGSMVIKFTHPDGDPNLPVETLNLKKEELSEEKIKELKEKNPDIKIELKSAGGSAGGSAGGS [r4_422_JUSTAS]”, the “folding stability dG unfold” value was -0.326 ± 0.39 kcal/mol.
In the case of “SAGMTHVLPVPELSPEEVRALAEALPEGEELVLLVPGPELLAELRAAGFPVDPARFRLATPEERAELLASAG [r5_354_JUSTAS]”, the “folding stability dG unfold” value is reported as -0.189 ± 0.12 kcal/mol.
In the case of “SAGGSMKDIPAEEIAKLFAAKLGYPILDAKVEKNPVKPVYKLYIVVEEKNPGKKFPREITIPSELLSAGGSA [r2_156_TrMRF]”, the “folding stability dG unfold” value is reported as -0.0499 ± 0.22 kcal/mol.
With “SAGGSAGGSAGIPADAPEAVVRLDLYPDGPDTVVTVEAPFKDIPLDDIPENAVVRLEASPLGSAGGSAGGSA [r18_21_TrMRF]” the “folding stability dG unfold” value was -0.539 ± 0.1 kcal/mol.
For “SAGGSAGGSAGGGSMDELPEIEEIAYVTDPATGAVTTVPASQVPEVLASTNNTVTIRPVSAGGSAGGSAGGS [r10_1121_JUSTAS]”, the “folding stability dG unfold” value was less than -1 kcal/mol.
For “SAGGSSVKVVKTEVTEDPATGLTTVTETFENGAKATFTIDPATGTVPGETEYPDKKVKYTGYDPLPPSAGGS [r8_363_JUSTAS]”, the “folding stability dG unfold” value was -0.111 ± 0.31 kcal/mol.
With “SAGGSAGGSAGGSGPDETILVTRKVTTTEPVLLEHDGTPRVRERTVTRTSSTTERVDLSSAGGSAGGSAGGS [r4_271_JUSTAS]” the “folding stability dG unfold” value was -0.835 ± 0.32 kcal/mol.
With “SAGGSAGGSAGGMKPGEVVLIYVERSYYDPEKGPLTPRNARYELLNYKPLPLKPKDPKVLSAGGSAGGSAGG [r7_522_JUSTAS]” the “folding stability dG unfold” value was -0.516 ± 0.16 kcal/mol.
For “SAGGSADNENNENQKPKPKPKKKLEVTIPVPLPPGDSLEEAMEQAYNIANHLAQSGKLDEVEISIFSAGGSA [r15_450_TrROS]”, the “folding stability dG unfold” value was less than -1 kcal/mol.
With “SAGGSAGGSDDAVTFTFTSAPTRLLYLDNPKTFPGSATVTLPAGNPDEFRIERFAPDTAELKPSAGGSAGGS [r20_150_TrMRF]” the “folding stability dG unfold” value was less than -1 kcal/mol.
With “SAGGSAGGAIAPGEEVEAEVTIVDPLTGKETTAKVTLTVHPTSVTITLPGGKPAVVPAAYVRFGSAGGSAGG [r6_436_TrMRF]” the “folding stability dG unfold” value was -0.535 ± 0.4 kcal/mol.
With “SAGGSAGGSAGGSSMKEVTLYVPPGTLDPAVVEKLREEGVKVTVVPVPLSREPDGPPVASAGGSAGGSAGGS [r4_294_JUSTAS]” the “folding stability dG unfold” value was 0.0503 ± 0.38 kcal/mol.
For “SAGGSMLVTVKFKTLPDGTVDHNPKLLAKVDGPEPDPADPATVRLPVDPAVVAQWPEEVAEEMEILASAGGS [r16_328_JUSTAS]”, the “folding stability dG unfold” value was -0.159 ± 0.074 kcal/mol.
In the case of “SAGGSAGGSAGEIVIDVEPNMTVEEVKKRIKALAEELKKEKGLEIKKIEIKEGMSVEELLSAGGSAGGSAGG [r17_43_TrROS_Hall]”, the “folding stability dG unfold” value is reported as -0.00172 ± 0.13 kcal/mol.
With “SAGGSAGGSAKKLKIPNPDGKTYEMKVEDVDPENNNVMIRNPGNGEPFHFKKSDAKRIAEELSAGGSAGGSA [r18_161_TrROS]” the “folding stability dG unfold” value was less than -1 kcal/mol.
For “SAGGSAGGSQKPTIEKEGGRYYIRNPDNGKSFPINIEREDNEWKFEFGDGEITIPGEFEIQRRSAGGSAGGS [r12_683_TrROS]”, the “folding stability dG unfold” value was less than -1 kcal/mol.
With “SAGGSAGGSAGGSGFILKESPDSVLSYDAITGETKKVPSKDVVLEYDPNNGVYTLTVSKSAGGSAGGSAGGS [r4_127_JUSTAS]” the “folding stability dG unfold” value was 0.168 ± 0.17 kcal/mol.
For “SAGGSGSRIVVETITEYEVFETPTGKKKTKVFKTKKIVTETVPMSPADVAAYEAALAEGLGPGALASAGGSA [r2_327_JUSTAS]”, the “folding stability dG unfold” value was -0.234 ± 0.17 kcal/mol.
With “SAMVPLEEAAKRVAEELGLEYTEITKIVPGTGELIVEFPGKKLTVTQDPATGSTTVEETFYDPETGVKKSAG [r14_270_JUSTAS]” the “folding stability dG unfold” value was less than -1 kcal/mol.
With “SSTTTTTTDPSGYTYSTTVTTHPDSTTTTTGRVTVEKVGDRPVARTTTTTTTVSPGGATTTTTSTTTTLPSA [r9_69_JUSTAS]” the “folding stability dG unfold” value was 0.0549 ± 0.082 kcal/mol.
In the case of “SAGGSAGGSAGGSKVYVLVPVPNPEAIWEKVKALGPDAKVNSVEFLPGEGYLRVEVDAPSAGGSAGGSAGGS [r10_23_TrMRF]”, the “folding stability dG unfold” value is reported as less than -1 kcal/mol.
For “SAGGSAGGSAGSMTVTSKYTLPGSSDVPVEVEVYSEAPVAVLTKPGAKTVLPLEALKALLSAGGSAGGSAGG [r11_370_JUSTAS]”, the “folding stability dG unfold” value was -0.0987 ± 0.084 kcal/mol.
With “SAGGSAGGSAGGTIKKVSDGTIVIPVPNPHQAEKFADTLMEKNNGRDVKIKVFPPEDFGPSAGGSAGGSAGG [r7_645_TrROS]” the “folding stability dG unfold” value was less than -1 kcal/mol.
In the case of “SAGGSAGGSAGMLTTKTITLPHAPDDPAAFRAAVLKGLPPELPVLSVDYDPATGTGTVVASAGGSAGGSAGG [r11_698_JUSTAS]”, the “folding stability dG unfold” value is reported as less than -1 kcal/mol.
With “SSVTLLVPVEVTLPTPEGKGPSVTRFVPVPVPEEELRERLIEELREELKKKGEPDVTEEELKDPEVLEELSA [r9_263_JUSTAS]” the “folding stability dG unfold” value was -0.0887 ± 0.18 kcal/mol.
With “SAGGSAGGSAGGPPVLTVTRYPPTPYLTVTLPGGRPVVLPVHPDTPPSDVLRLARELTASAGGSAGGSAGGS [r10_33_TrMRF]” the “folding stability dG unfold” value was less than -1 kcal/mol.
With “SAGGSAGMRMQIQIPNDEIPPEKIEDALQEYGWNPTDVYPPDNGVSVTFEMDPGDMNKLMEAIKKLSAGGSA [r15_161_TrROS]” the “folding stability dG unfold” value was 0.107 ± 0.35 kcal/mol.
For “SAGGGPPGVVKPFTEETTFTVPLAGGPPVEVKTTTTTYTSADPAKRSLVTTTTTSPQNATTTTVTPLSSAGG [r13_654_JUSTAS]”, the “folding stability dG unfold” value was less than -1 kcal/mol.
For “SAGGSAGGAEKIKKKLEELGFEIVKIEKESENKIKIYVKPDNPEKIKEIKEKISSSEVDEIGNESAGGSAGG [r6_83_TrMRF]”, the “folding stability dG unfold” value was -0.27 ± 0.17 kcal/mol.
With “SAGGSAGGSELPPGPYLVTIPADPEPVVAPATFAPDGTVRVRVPEPGEEITIPRDQAEIFPVESAGGSAGGS [r12_782_JUSTAS]” the “folding stability dG unfold” value was -0.0148 ± 0.28 kcal/mol.
For “SKPMPADELMEQHPNMIMIRTPNDKHIFINPEENEIFRFNPDEGRVYWIPGTLEEIEELVPDNGFEIWPFSA [r9_721_TrROS]”, the “folding stability dG unfold” value was 0.286 ± 0.22 kcal/mol.
With “SAGGMPATLEVRLPDGAGAVGVVRADDPDEIIEAARAIPADAPVVLTTDDPAYGRLFLEAGFDVVTLESAGG [r13_476_TrMRF]” the “folding stability dG unfold” value was -0.138 ± 0.16 kcal/mol.
With “SAGGSAGGSAGGSDDGSGVRLETFTVTGKGATVTLPDGSTLTVPADQTVTVTRLEVLPKSAGGSAGGSAGGS [r4_26_TrMRF]” the “folding stability dG unfold” value was less than -1 kcal/mol.
In the case of “SAGGSAGGSAGMTLVKTYERFPETGTVVERLSAREPDGPTVPLEVTKVRPVAGEEPVPLLSAGGSAGGSAGG [r11_750_JUSTAS]”, the “folding stability dG unfold” value is reported as less than -1 kcal/mol.
With “SAGGSAGGSEEVVRTETSTSTTPDGKRVKTTTTTLPTPTTVTTTTVYAPGGEVLETTTTTTAASAGGSAGGS [r12_727_JUSTAS]” the “folding stability dG unfold” value was less than -1 kcal/mol.
With “SSMVVINFPDTKKATPETLRKEIEPVAAPGKPVLVTVYPPTGVVLKTATVEPDKVEEVDPSHPYIVEIVASA [r9_264_JUSTAS]” the “folding stability dG unfold” value was -0.558 ± 0.16 kcal/mol.
With “SAGGMKAKATFKIPKTFVDPKNNSPKISESEITIEREFKSEEEAKEFVEKIKEELPPELTELVSLELESAGG [r19_209_JUSTAS]” the “folding stability dG unfold” value was less than -1 kcal/mol.
In the case of “SAGGKKKVVIKVEVKNKKTGKTFEKEIVIEIDENETEEQILEKAKELAKKLAEENGLEVKIVEIKPLSAGGS [r8_312_TrROS_Hall]”, the “folding stability dG unfold” value is reported as 4.43 ± 0.25 kcal/mol.
With “SAGGENVIIRYKDPDRFKEAIQDAPGIPPENVKTKPNPNGWNEVTFPNPEALDRLKKAGYPVDKIEPSAGGS [r16_381_TrROS]” the “folding stability dG unfold” value was less than -1 kcal/mol.
In the case of “SAGGSIPAEEIADKLRKEPGIPEDDVEVNVERRPGQVTIDVKMDDPDHPQHRRMKKRAQDALQKLLSAGGSA [r2_3_TrROS]”, the “folding stability dG unfold” value is reported as -0.133 ± 0.3 kcal/mol.
In the case of “SAGGSAGGMSLEEAVEEAAAAVSPDETAEVVLTVEVSEPLTFPEPPDRLVTRPRTVRVRVRAPASAGGSAGG [r6_543_JUSTAS]”, the “folding stability dG unfold” value is reported as 0.319 ± 0.19 kcal/mol.
In the case of “SAGGSAGGSSEVIEKLLELNPDVEVVSVTPTPNGVTVTVATKEGGEETVSSAELEKLGVKIRLSAGGSAGGS [r12_3_JUSTAS]”, the “folding stability dG unfold” value is reported as 0.1 ± 0.28 kcal/mol.
For “SAGGSAGGSPPPVPLSTLAVEPDPATGGKFTVLLAYPDGSTRELTSEEEAAALPNFDLERRLASAGGSAGGS [r20_192_JUSTAS]”, the “folding stability dG unfold” value was -0.0474 ± 0.21 kcal/mol.
For “SPPVLYEITITFTYSDGTTVTKTINATVPRSQIDALIQKIIEEPGNKPYTKVTFNIYDKSTGTWTTITIDSA [r9_97_JUSTAS]”, the “folding stability dG unfold” value was 5.66 ± 0.23 kcal/mol.
